# According to PMC12246617, “Cryo-EM structures reveal the PP2A–B55α and Eya3 interaction that can be disrupted by a peptide inhibitor” (The Journal of Biological Chemistry, 2025):
# T1: His-hB55 (human PP2A regulatory subunit B55α), P63151
# T1 chain: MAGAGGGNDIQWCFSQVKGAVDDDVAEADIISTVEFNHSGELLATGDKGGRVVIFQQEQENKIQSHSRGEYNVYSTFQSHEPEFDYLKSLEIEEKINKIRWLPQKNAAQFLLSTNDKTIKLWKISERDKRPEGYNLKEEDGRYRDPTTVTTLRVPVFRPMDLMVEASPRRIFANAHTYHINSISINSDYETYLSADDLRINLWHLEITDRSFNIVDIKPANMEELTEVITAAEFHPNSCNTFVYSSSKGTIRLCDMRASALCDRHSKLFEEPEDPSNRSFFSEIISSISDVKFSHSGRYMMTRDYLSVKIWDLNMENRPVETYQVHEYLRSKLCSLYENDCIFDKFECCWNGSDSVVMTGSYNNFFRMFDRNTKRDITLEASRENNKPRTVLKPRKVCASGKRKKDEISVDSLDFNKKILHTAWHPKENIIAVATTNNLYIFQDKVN
# What was measured:
# [1] = target: T1, His-hB55 (human PP2A regulatory subunit …); assay: MST; details: chain shown with the change;
# [2] = target: B55i peptide (computationally engineered inhibitory peptide of B55); assay: fluorescence polarisation; His-B55 serially diluted in 50 mM Tris pH 8, 100 mM NaCl, 1 mM DTT, incubated with 3 nM FITC-B55i at room temperature for 10 min
Binder,Kd ([1]; parent: 1.04 µM) [µM],other results
"mouse Eya3 (mEya3), wild type, P97480 Y77A (protein) MEEEQDLPEQPVKKAKMQEPREQTLSQVNNPDASDEKPETSSLASNLSMSEEIMTCTDYIPRSSNDYTSQMYSAKPAAHILSVPVSETTYPGQTQYQTLQQSQPYAVYPQATQTYGLPPFASSTNASLIPTSSAIANIPAAAVASISNQDYPTYTILGQNQYQACYPSSSFGVTGQTNSDAETTTLAATTYQTEKPSAMVPAPATQRLPSDSSASPPLSQTTPNKDADDQARKNMTVKNRGKRKADASSSQDSELERVFLWDLDETIIIFHSLLTGSYAQKYGKDPTVVIGSGLTMEEMIFEVADTHLFFNDLEECDQVHVEDVASDDNGQDLSNYSFSTDGFSGSGGSGSHGSSVGVQGGVDWMRKLAFRYRKVREIYDKHKSNVGGLLSPQRKEALQRLRAEIEVLTDSWLGTALKSLLLIQSRKNCANVLITTTQLVPALAKVLLYGLGEIFPIENIYSATKIGKESCFERIVSRFGKKVTYVVIGDGRDEEIAAKQHNMPFWRITNHGDLVSLHQALELDFL",4.87,–
"mouse Eya3 (mEya3), wild type, P97480 H79A (protein) MEEEQDLPEQPVKKAKMQEPREQTLSQVNNPDASDEKPETSSLASNLSMSEEIMTCTDYIPRSSNDYTSQMYSAKPYAAILSVPVSETTYPGQTQYQTLQQSQPYAVYPQATQTYGLPPFASSTNASLIPTSSAIANIPAAAVASISNQDYPTYTILGQNQYQACYPSSSFGVTGQTNSDAETTTLAATTYQTEKPSAMVPAPATQRLPSDSSASPPLSQTTPNKDADDQARKNMTVKNRGKRKADASSSQDSELERVFLWDLDETIIIFHSLLTGSYAQKYGKDPTVVIGSGLTMEEMIFEVADTHLFFNDLEECDQVHVEDVASDDNGQDLSNYSFSTDGFSGSGGSGSHGSSVGVQGGVDWMRKLAFRYRKVREIYDKHKSNVGGLLSPQRKEALQRLRAEIEVLTDSWLGTALKSLLLIQSRKNCANVLITTTQLVPALAKVLLYGLGEIFPIENIYSATKIGKESCFERIVSRFGKKVTYVVIGDGRDEEIAAKQHNMPFWRITNHGDLVSLHQALELDFL",–,Kd ([1]; parent: 1.04): 9.16 µM
"mouse Eya3 (mEya3), wild type, P97480 K75A (protein) MEEEQDLPEQPVKKAKMQEPREQTLSQVNNPDASDEKPETSSLASNLSMSEEIMTCTDYIPRSSNDYTSQMYSAAPYAHILSVPVSETTYPGQTQYQTLQQSQPYAVYPQATQTYGLPPFASSTNASLIPTSSAIANIPAAAVASISNQDYPTYTILGQNQYQACYPSSSFGVTGQTNSDAETTTLAATTYQTEKPSAMVPAPATQRLPSDSSASPPLSQTTPNKDADDQARKNMTVKNRGKRKADASSSQDSELERVFLWDLDETIIIFHSLLTGSYAQKYGKDPTVVIGSGLTMEEMIFEVADTHLFFNDLEECDQVHVEDVASDDNGQDLSNYSFSTDGFSGSGGSGSHGSSVGVQGGVDWMRKLAFRYRKVREIYDKHKSNVGGLLSPQRKEALQRLRAEIEVLTDSWLGTALKSLLLIQSRKNCANVLITTTQLVPALAKVLLYGLGEIFPIENIYSATKIGKESCFERIVSRFGKKVTYVVIGDGRDEEIAAKQHNMPFWRITNHGDLVSLHQALELDFL",4.24,–
His-hB55 (human PP2A regulatory subunit B55α) (natural protein) MAGAGGGNDIQWCFSQVKGAVDDDVAEADIISTVEFNHSGELLATGDKGGRVVIFQQEQENKIQSHSRGEYNVYSTFQSHEPEFDYLKSLEIEEKINKIRWLPQKNAAQFLLSTNDKTIKLWKISERDKRPEGYNLKEEDGRYRDPTTVTTLRVPVFRPMDLMVEASPRRIFANAHTYHINSISINSDYETYLSADDLRINLWHLEITDRSFNIVDIKPANMEELTEVITAAEFHPNSCNTFVYSSSKGTIRLCDMRASALCDRHSKLFEEPEDPSNRSFFSEIISSISDVKFSHSGRYMMTRDYLSVKIWDLNMENRPVETYQVHEYLRSKLCSLYENDCIFDKFECCWNGSDSVVMTGSYNNFFRMFDRNTKRDITLEASRENNKPRTVLKPRKVCASGKRKKDEISVDSLDFNKKILHTAWHPKENIIAVATTNNLYIFQDKVN,–,Kd [2]: 0.0673 µM
